Reference: patent US20040266684

Biological target: T1, purified human Lys77-Plasminogen, P00747
T1 chain: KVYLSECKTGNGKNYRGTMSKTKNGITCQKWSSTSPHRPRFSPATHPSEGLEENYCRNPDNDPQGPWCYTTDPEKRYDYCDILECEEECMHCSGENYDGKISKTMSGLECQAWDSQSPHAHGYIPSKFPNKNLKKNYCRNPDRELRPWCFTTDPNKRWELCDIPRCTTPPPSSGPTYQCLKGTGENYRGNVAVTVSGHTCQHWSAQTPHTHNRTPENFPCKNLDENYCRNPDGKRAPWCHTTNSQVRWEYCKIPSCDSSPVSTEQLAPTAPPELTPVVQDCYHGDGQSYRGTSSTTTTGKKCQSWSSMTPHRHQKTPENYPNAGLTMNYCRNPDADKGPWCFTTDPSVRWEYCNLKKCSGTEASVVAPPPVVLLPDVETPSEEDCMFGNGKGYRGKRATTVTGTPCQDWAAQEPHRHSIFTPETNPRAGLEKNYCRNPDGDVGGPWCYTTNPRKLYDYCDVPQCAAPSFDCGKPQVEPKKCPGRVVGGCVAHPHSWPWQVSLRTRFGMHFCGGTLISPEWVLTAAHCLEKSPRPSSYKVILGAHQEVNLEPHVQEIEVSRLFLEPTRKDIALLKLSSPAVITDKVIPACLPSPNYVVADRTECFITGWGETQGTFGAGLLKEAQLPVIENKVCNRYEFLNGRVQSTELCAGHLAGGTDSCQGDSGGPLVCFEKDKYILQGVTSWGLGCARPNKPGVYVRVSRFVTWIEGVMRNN

B1: thiolated streptokinase (protein)
chain: IAGPEWLLDRPSVNNSQLVVSVAGTVEGTNQDISLKFFEIDLTSRPAHGGKTEQGLSPKSKPFATDSGAMSHKLEKADLLKAIQEQLIANVHSNDDYFEVIDFASDATITDRNGKVYFADKDGSVTLPTQPVQEFLLSGHVRVRPYKEKPIQNQAKSVDVEYTVQFTPLNPDDDFRPGLKDTKLLKTLAIGDTITSQELLAQAQSILNKNHPGYTIYERDSSIVTHDNDIFRTILPMDQEFTYRVKNREQAYRINKKSGLNEEINNTDLISEKYYVLKKGEKPYDPFDRSHLKLFTIKYVDVDTNELLKSEQLLTASERNLDFRDLYDPRDKAKLLYNNLDAFGIMDYTLTGKVEDNHDDTNRIITVYMGKRPEGENASYHLAYDKDRYTEEEREVYSYLRYTGTPIPDNPNDK
- plasmin generated in the plasminogen activation assay (S-2251 substrate units): thiolated SK (1 nM) generated plasmin at a nearly linear of 4225 SU/ml
